Assay results published in doi:10.1101/2023.03.19.533240.

Molecular target: MBP-DDX3X WT (UniProt O00571 1-662)
Test: time-resolved fluorescence anisotropy

Chain of MBP-DDX3X WT (O00571 whole entry): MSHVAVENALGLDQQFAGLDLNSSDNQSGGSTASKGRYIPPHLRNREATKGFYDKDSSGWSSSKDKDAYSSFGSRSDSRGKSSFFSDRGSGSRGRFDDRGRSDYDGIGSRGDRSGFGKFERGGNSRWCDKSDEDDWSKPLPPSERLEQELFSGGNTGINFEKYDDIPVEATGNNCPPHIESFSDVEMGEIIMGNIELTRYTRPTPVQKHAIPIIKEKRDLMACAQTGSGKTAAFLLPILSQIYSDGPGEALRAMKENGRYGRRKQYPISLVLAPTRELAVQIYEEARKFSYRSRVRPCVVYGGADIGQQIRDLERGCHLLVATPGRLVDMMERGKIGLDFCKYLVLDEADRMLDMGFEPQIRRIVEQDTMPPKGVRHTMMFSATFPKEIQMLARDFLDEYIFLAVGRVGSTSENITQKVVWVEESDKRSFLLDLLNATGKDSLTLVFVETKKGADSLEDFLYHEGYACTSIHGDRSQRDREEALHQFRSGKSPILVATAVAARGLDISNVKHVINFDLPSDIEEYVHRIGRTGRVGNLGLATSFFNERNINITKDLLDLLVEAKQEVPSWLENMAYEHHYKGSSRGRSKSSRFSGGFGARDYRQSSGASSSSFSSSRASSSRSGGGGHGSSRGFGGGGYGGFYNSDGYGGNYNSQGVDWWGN

B1: long strand 42-mer ssRNA (ssRNA)
RNA: UUUUUUUUUUUUUUUUUUUUUUUUCGGAGCGACGGCAGCGGU
binding result: binds
